{
  "source": "patent US20030200555A1",
  "binders": {"B1": {"name": "SEVNL peptide (peptide)", "peptide": "SEVNL"}},
  "biological_target": "2081/anti-NF IgG",
  "experiment": "ECL (ORIGEN Analyzer), competition with biotinylated-SEVNF",
  "data": [
    {"binder": "B1", "values": [
      {"measurement": "fold less effective in competition than SEVNF", "result": 100, "unit": "fold"}
    ]}
  ]
}
